Experimental findings from publication PMC12948210 (2025) are described below.

Common to all, as to assay: GST pull-down; 500 mM NaCl; denaturing pull-down (His-DDX21 purified in urea or guanidine)
Test [1] concerns the target T1, GST-tagged EIF1AX IDR1 fragment (Homo sapiens (Human), UniProt P47813).
T1 chain: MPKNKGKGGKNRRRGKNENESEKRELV

For test [2], the target named is T2, GST-tagged EIF1AX IDR2 fragment (Homo sapiens (Human), UniProt P47813).
T2 chain: DIGDDDEDIDDI

Test [3] deals with T3, GST-tagged EIF1AX RBP fragment (Homo sapiens (Human), UniProt P47813).
T3 chain: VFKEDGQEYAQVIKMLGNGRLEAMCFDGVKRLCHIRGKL

B1: His-DDX21 (protein)
chain: MPGKLRSDAGLESDTAMKKGETLRKQTEEKEKKEKPKSDKTEEIAEEEETVFPKAKQVKKKAEPSEVDMNSPKSKKAKKKEEPSQNDISPKTKSLRKKKEPIEKKVVSSKTKKVTKNEEPSEEEIDAPKPKKMKKEKEMNGETREKSPKLKNGFPHPEPDCNPSEAASEESNSEIEQEIPVEQKEGAFSNFPISEETIKLLKGRGVTFLFPIQAKTFHHVYSGKDLIAQARTGTGKTFSFAIPLIEKLHGELQDRKRGRAPQVLVLAPTRELANQVSKDFSDITKKLSVACFYGGTPYGGQFERMRNGIDILVGTPGRIKDHIQNGKLDLTKLKHVVLDEVDQMLDMGFADQVEEILSVAYKKDSEDNPQTLLFSATCPHWVFNVAKKYMKSTYEQVDLIGKKTQKTAITVEHLAIKCHWTQRAAVIGDVIRVYSGHQGRTIIFCETKKEAQELSQNSAIKQDAQSLHGDIPQKQREITLKGFRNGSFGVLVATNVAARGLDIPEVDLVIQSSPPKDVESYIHRSGRTGRAGRTGVCICFYQHKEEYQLVQVEQKAGIKFKRIGVPSATEIIKASSKDAIRLLDSVPPTAISHFKQSAEKLIEEKGAVEALAAALAHISGATSVDQRSLINSNVGFVTMILQCSIEMPNISYAWKELKEQLGEEIDSKVKGMVFLKGKLGVCFDVPTASVTEIQEKWHDSRRWQLSVATEQPELEGPREGYGGFRGQREGSRGFRGQRDGNRRFRGQREGSRGPRGQRSGGGNKSNRSQNKGQKRSFSKAFGQ
B1: the binding result is listed as “no binding” in test [1], “no binding” in test [2] and “binds” in test [3].
